Results on 1 molecule are retold here after publication PMC6023938, “Global pairwise RNA interaction landscapes reveal core features of protein recognition”.

This data set concerns the target T1, TUT7 RNA-binding region (Homo sapiens, UniProt Q5VYS8 1362-1452).
T1 sequence: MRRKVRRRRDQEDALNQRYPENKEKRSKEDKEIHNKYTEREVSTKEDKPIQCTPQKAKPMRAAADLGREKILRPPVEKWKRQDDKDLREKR
Nature of the data set: fluorescence polarization; FP: 45 mM Tris-HCl pH 8.0, 90 mM NaCl, 0.2% Tween-20, 22 C, 60 min, 30 ul. Conditions: protein: recombinant; tags: GST fusion (expressed in BL21 codon plus); label: 5' Cy5.

On to GCAGUCUUAACGCUGCCUUA (ssRNA) [top scoring Hamiltonian sequence for TUT7], for which the binding result is “binds”.
